B1: Protein PTHB1 (Homo sapiens), Q3SYG4 (parent)
chain: MSLFKARDWWSTILGDKEEFDQGCLCLANVDNSGNGQDKIIVGSFMGYLRIFSPHPAKTGDGAQAEDLLLEVDLRDPVLQVEVGKFVSGTEMLHLAVLHSRKLCVYSVSGTLGNVEHGNQCQMKLMYEHNLQRTACNMTYGSFGGVKGRDLICIQSMDGMLMVFEQESYAFGRFLPGFLLPGPLAYSSRTDSFLTVSSCQQVESYKYQVLAFATDADKRQETEQQKLGSGKRLVVDWTLNIGEQALDICIVSFNQSASSVFVLGERNFFCLKDNGQIRFMKKLDWSPSCFLPYCSVSEGTINTLIGNHNNMLHIYQDVTLKWATQLPHIPVAVRVGCLHDLKGVIVTLSDDGHLQCSYLGTDPSLFQAPNVQSRELNYDELDVEMKELQKIIKDVNKSQGVWPMTEREDDLNVSVVVSPNFDSVSQATDVEVGTDLVPSVTVKVTLQNRVILQKAKLSVYVQPPLELTCDQFTFEFMTPDLTRTVSFSVYLKRSYTPSELEGNAVVSYSRPTDRNPDGIPRVIQCKFRLPLKLICLPGQPSKTASHKITIDTNKSPVSLLSLFPGFASQSDDDQVNVMGFHFLGGARITVLASKTSQRYRIQSEQFEDLWLITNELILRLQEYFEKQGVKDFACSFSGSIPLQEYFELIDHHFELRINGEKLEELLSERAVQFRAIQRRLLARFKDKTPAPLQHLDTLLDGTYKQVIALADAVEENQGNLFQSFTRLKSATHLVILLIALWQKLSADQVAILEAAFLPLQEDTQELGWEETVDAAISHLLKTCLSKSSKEQALNLNSQLNIPKDTSQLKKHITLLCDRLSKGGRLCLSTDAAAPQTMVMPGGCTTIPESDLEERSVEQDSTELFTNHRHLTAETPRPEVSPLQGVSE
partner: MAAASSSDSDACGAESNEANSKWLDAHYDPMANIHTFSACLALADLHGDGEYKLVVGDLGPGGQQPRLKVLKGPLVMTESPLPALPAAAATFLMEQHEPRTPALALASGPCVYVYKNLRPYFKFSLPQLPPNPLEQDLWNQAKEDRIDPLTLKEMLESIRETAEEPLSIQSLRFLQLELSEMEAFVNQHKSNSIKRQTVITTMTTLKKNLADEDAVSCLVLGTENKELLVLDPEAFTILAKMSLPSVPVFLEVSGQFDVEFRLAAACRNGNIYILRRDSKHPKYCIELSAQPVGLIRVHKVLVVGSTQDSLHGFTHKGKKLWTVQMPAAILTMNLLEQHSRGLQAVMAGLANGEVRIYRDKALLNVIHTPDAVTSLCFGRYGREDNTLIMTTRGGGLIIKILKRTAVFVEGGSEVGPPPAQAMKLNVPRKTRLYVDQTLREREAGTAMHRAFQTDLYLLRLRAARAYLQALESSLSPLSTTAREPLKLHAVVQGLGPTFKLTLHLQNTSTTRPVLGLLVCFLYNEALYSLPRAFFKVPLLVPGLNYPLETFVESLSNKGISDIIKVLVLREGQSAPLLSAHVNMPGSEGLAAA

Variants of: B1
Conditions: with bbs1_human BBS1, Q8NFJ9

| Variant | effect of a mutation on the interaction |
| --- | --- |
| Y508K | with no effect |
| D700A | with no effect |
| L720E | with no effect |
| I601K | with no effect |
| L620A | with no effect |
| V442E | with no effect |
| V442A | with no effect |
| P463A | with no effect |
| S414E | with no effect |
| S414K | with no effect |
| H546E | with no effect |
| D422A | with no effect |
| F636E | with no effect |
| L533E | with no effect |
| S639K | with no effect |
| L680A | with no effect |
| L536E | with no effect |
| L536A | with no effect |
| N420E | with no effect |
| Q705E | with no effect |
| V424E | with no effect |
| L616K | with no effect |
| I550A | with no effect |
| D513A | with no effect |
| F646K | with no effect |
| L452K | with no effect |

| Variant | effect of a mutation on the interaction |
| --- | --- |
| L452A | with no effect |
| V575K | with no effect |
| V575E | with no effect |
| F566E | with no effect |
| Q462T | disrupting interaction strength |
| Q462A | with no effect |
| V590A | with no effect |
| A586E | with no effect |
| E406A | with no effect |
| A710K | with no effect |
| F653A | with no effect |
| L695A | with no effect |
| R521K | with no effect |
| R521T | disrupting interaction strength |
| P479K | with no effect |
| L583A | with no effect |
| Y703A | with no effect |
| Y703K | with no effect |
| S458E | with no effect |
| K554A | with no effect |
| Q524A | with no effect |
| G584E | with no effect |
| G538E | with no effect |
| N658E | with no effect |
| F487K | with no effect |
| R674A | with no effect |

| Variant | effect of a mutation on the interaction |
| --- | --- |
| L733K | with no effect |
| Q643E | with no effect |
| A633K | with no effect |
| S723K | with no effect |
| I523K | with no effect |
| P516K | with no effect |
| F421E | with no effect |
| S545E | with no effect |
| L529K | with no effect |
| L529A | with no effect |
| R407A | with no effect |
| D480K | with no effect |
| E431K | with no effect |
| R493K | with no effect |
| D409E | with no effect |
| D409K | with no effect |
| V706A | with no effect |
| H652E | with no effect |
| P464E | with no effect |
| S486K | with no effect |
| L500E | with no effect |
| F721K | with no effect |
| F721S | disrupting interaction strength |
| I657A | with no effect |
| I649K | with no effect |
| I649E | with no effect |

| Variant | effect of a mutation on the interaction |
| --- | --- |
| D696V | disrupting interaction strength |
| L709A | with no effect |
| T473E | with no effect |
| D571E | with no effect |
| F632E | with no effect |
| T482E | with no effect |
| E475K | with no effect |
| E475A | with no effect |
| F684A | with no effect |
| P537A | with no effect |
| R679W | disrupting interaction strength |
| R679K | with no effect |
| P689K | with no effect |
| S439E | with no effect |
| F472A | with no effect |
| Q627E | with no effect |
| V485E | with no effect |
| V485A | with no effect |
| R598A | with no effect |
| K456E | with no effect |
| Y623K | with no effect |
| T445E | with no effect |
| T428A | with no effect |
| P438K | with no effect |
| Q693E | with no effect |
| S596E | with no effect |

| Variant | effect of a mutation on the interaction |
| --- | --- |
| I676A | with no effect |
| L467K | with no effect |
| K630E | with no effect |
| D435E | with no effect |
| S667E | with no effect |
| F474K | with no effect |
| L698K | with no effect |
| V440K | with no effect |
| V417K | with no effect |
| V417E | with no effect |
| L446A | with no effect |
| V734G | disrupting interaction strength |
| V557E | with no effect |
| L648K | with no effect |
| L662K | with no effect |
| R528E | with no effect |
| I548A | with no effect |
| S507A | with no effect |
| S507K | with no effect |
| C535K | with no effect |
| T441K | with no effect |
| L692R | disrupting interaction strength |
| R449A | with no effect |

Further lines, results first:

| effect of a mutation on the interaction | Variant |
| --- | --- |
| with no effect | L744K |
| with no effect | Q791K |
| with no effect | S860E |
| with no effect | D830K |
| with no effect | D830A |
| with no effect | I751E |
| with no effect | A754E |
| with no effect | E853A |
| with no effect | P881K |
| with no effect | L808K |
| with no effect | V838A |
| with no effect | L780E |
| with no effect | Q858K |
| with no effect | C816K |
| with no effect | R824E |
| with no effect | Q764E |
| with no effect | Q764A |
| with no effect | D762E |
| with no effect | L766A |

| effect of a mutation on the interaction | Variant |
| --- | --- |
| with no effect | L766E |
| with no effect | S828A |
| with no effect | Q807A |
| with no effect | Q807K |
| with no effect | Q798A |
| with no effect | P875E |
| with no effect | G841A |
| with no effect | G841K |
| with no effect | E862A |
| with no effect | N800A |
| with no effect | N800E |
| with no effect | S880A |
| with no effect | I735A |
| with no effect | D859A |
| with no effect | D859K |
| with no effect | N796K |
| disrupting interaction strength | M837S |
| with no effect | M837E |
| disrupting interaction strength | V749E |

| effect of a mutation on the interaction | Variant |
| --- | --- |
| with no effect | V749K |
| with no effect | P834K |
| with no effect | L819A |
| with no effect | A755K |
| with no effect | P847K |
| disrupting interaction strength | A833S |
| with no effect | E852K |
| with no effect | G842E |
| with no effect | T805E |
| with no effect | T805K |
| with no effect | S787K |
| with no effect | L825A |
| with no effect | T844E |
| with no effect | L851E |
| with no effect | A739K |
| with no effect | L779K |
| with no effect | S797E |
| with no effect | E790K |

Reference: IntAct's records for PubMed 29039417
